B1: POU domain, class 3, transcription factor 2, residues 262 to 338; numbered along this chain, P20265 (parent)
chain: EDTPTSDDLEQFAKQFKQRRIKLGFTQADVGLALGTLYGNVFSQTTICRFEALQLSFKNMCKLKPLLNKWLEEADSS

Variants of: B1
Test: abundance fitness (aPCA) (normalised: wild type 0, dead -1); higher = more abundant; growth selection in yeast, the domain comes from the species named
Conditions: Homo sapiens

Abundance fitness of substitutions, site by site:
T5: D -0.042, P -0.138, C 0.038, S -0.008, Q -0.082, F -0.109, I -0.006, L -0.041, Y -0.337, E -0.144, R -0.082, M -0.056, H -0.079, V -0.108, N 0.026
I21: P -0.805, S -0.337, M 0.01, Y -0.489, R -0.195, L -0.015, A -0.236, C -0.204, Q 0.005, T -0.179, D -0.567, N -0.311, E -0.004, H -0.267, V -0.058, K -0.112
D8: A -0.006, N 0.047, F -0.186, Q 0.055, P -0.34, R -0.234, L -0.172, S 0.034, Y -0.41, E 0.079, I -0.423, G -0.043, M -0.056, V -0.153, W -0.418, C -0.121, T -0.093, H -0.052, K -0.074
G24: A -0.598, V -0.814, K -0.295, E -0.641, L -0.789, H -0.466, S -0.646, M -0.821, F -1, P -0.714, I -0.94, D -0.572, T -0.914, R -0.408, C -0.575
E10: N -0.204, C -0.01, T -0.103, S -0.028, K 0.124, H 0.093, G -0.223, L 0.128, D -0.259, A 0.006, V 0.038, M 0.008, I -0.086, P -0.189, Y 0.054
D7: A -0.154, P -0.143, R 0.031, V 0.021, E -0.087, K 0.029, L -0.434, S 0.054, G 0.064, Q 0.211, W 0.143
S6: Q 0.124, V 0.062, M 0.148, A 0.108, C 0.058, W 0.098, I 0.011, T 0.099, Y 0.126, G -0.05, D -0.092, P 0.059, N -0.032, H 0.265, K 0.091, E -0.038
P4: R -0.027, Q 0.053, Y -0.102, S -0.018, V 0.061, M 0.068, N -0.095, W 0.091
F12: W -0.27, M -0.223, C -0.555, T -0.359, D -0.561, V -0.442, R -0.401, L -0.776, G -0.582, A -0.283, Q -0.828, S -0.614, Y -0.023, I -0.66
Q18: V -0.145, K 0.024, N -0.292, Y -0.295, L -0.13, T -0.029, I -0.223, C -0.157, R -0.077, M -0.089, H -0.193, G -0.273, S -0.018, D -0.068, P -1.21
K17: F -0.9, L -0.597, C -0.442, H -0.343, S -0.279, E -0.39, I -0.349, T -0.192, R -0.05, N -0.895, G -0.6, M -0.171, W -0.832, D -0.949, Q -0.025, V -0.316, P -0.658
K14: M -0.082, E 0.018, T -0.121, G -0.251, A -0.008, D -0.012, R -0.077, L -0.058, C -0.136, I -0.267, S -0.073, Q 0.075, V -0.134, W -0.182, F -0.337
K22: R -0.054, C -0.042, Y -0.3, P -0.958, F -0.096, D 0.041, N -0.117, Q -0.028, E 0.057, T -0.143, H -0.168, A 0.009, M -0.073, I -0.273, V -0.298, L -0.04, S -0.131
F16: Q -0.647, N -0.704, T -0.677, S -0.802, Y -0.767, D -0.854, R -0.69, H -0.91, L -0.477, A -0.656, V -0.671, E -0.618, W -0.595, M -0.606, P -0.733, K -0.633, C -0.765, G -0.818, I -0.753
A13: V -0.044, G -0.605, L -0.759, E -0.645, C -0.156, Y -0.845, I -0.12, S -0.274, D -0.865, Q -0.73, N -1.07, K -0.606, H -0.544, M -0.259, P -0.731, T -0.255, F -0.84, W -0.913
Q11: M 0.035, F -0.062, C -0.141, L -0.04, I -0.063, R 0.001, G -0.103, Y -0.024, A 0.016, V -0.015, T -0.049, W -0.196, D -0.114, S -0.046, N 0.025, P -0.629, H 0.017, K 0
R19: P -0.961, N -0.182, H -0.047, W -0.379, Y -0.695, K 0.035, C -0.162, V -0.194, G -0.308, E -0.116, S -0.187, Q -0.113, M -0.1, A -0.057, F -0.439, D -0.334, I -0.196, T -0.049
Q15: C -0.147, R -0.035, F -0.187, K -0.003, N 0.063, W -0.033, S 0.013, H 0.042, A -0.124, M 0.051, G -0.141, I -0.068, E 0.018, D -0.008, P -1.08, T -0.038, Y 0.092, L -0.067
R20: H -1.02, N -1.09, F -1.03, A -1.05, I -0.794, W -0.909, S -0.694, T -1.13, M -1.29, Y -0.63, G -0.938, Q -0.87, L -0.766, C -1.01, V -0.728, K -1.25, E -0.712, D -1.05
L23: G -0.398, P -0.887, K -0.332, C -0.313, I -0.565, S -0.345, A -0.188, Y -0.139, R -0.239, D -0.733, T -0.486, E -0.578, N -0.254, Q -0.31, M 0.048
L9: Y -0.457, I 0.074, Q -0.53, P -0.483, C -0.246, T -0.289, A -0.491, N -0.394, S -0.564, K -0.606, D -0.497, W -0.396, V -0.107, E -0.797, H -0.352, G -0.605, R -0.716

— the Human Domainome abundance scans (Beltran et al. 2025)
